Measured values as given in the nanobody polyreactivity screen of Harvey et al. (2022).

Experiment: yeast display, Sf9 membrane polyspecificity reagent, FACS + sequencing; frameworks hold sequencing errors
Method in brief: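 Nanobodies came from a synthetic yeast display library in Saccharomyces cerevisiae BJ5465, induced with galactose for 36–48 hours and stained for 1 hour at 4 °C with 10% biotinylated, detergent-solubilized Sf9 membrane reagent. Cells were enriched on streptavidin microbeads and then FACS-sorted, with low and high (top ~1%) gates set on anti-HA fluorescence for expression and streptavidin fluorescence for reagent binding. Each polyreactivity label reflects the gate a clone came from. Genes were amplified by colony PCR, sequenced by MiSeq 2 × 250 and filtered by CDR length.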

Sequence	polyreactivity (PSR sort gate)
QVQLVETGGGLVQAGGSLSLSCAASGYIFEINAKGWYRQAPGKERELVADIRRGDSTNYADSVKGRFTISRDNSMNTVYLQMNSLKPEDTAVYYCAAYHRLFDYDYCGQGTQVTVSS	high polyreactivity
QVQLVESGGGLVQAGGSLRLSCAASGSISSWYAMGWYRQAPGKERELVAAISSGVTTYYADSVKGRFTISRDNAKNTVYLQMHSLKPEDTAVDYCAAKTALYRERGYWGQGTQVTVSS	low polyreactivity
QFQLVESGGGLVQAGGSLRLSCAASGRIFKPNAMGWYRQAPGKERELVAAIRYSTGRTYYADSVKGRFTISRDNAKNTVYLQMNSLKPEDTAVYYCAARRVEYYGSQNGYWGQGTQVTVSS	high polyreactivity
QVQLVESGGGLVQEGGSLRLTCAASGRIFVYNAMGWYRQAPRKDRELVAAISWRGDGTYYADSVKGLFTISRDNAKITVYLQMNSLKPEDTAVYYCAADYVYYYHEYDYWGQGTQVTVSS	low polyreactivity
QVQLVESGGGLVQAGGSLRLSCAASGITFVRYAMGWYRQAPGKERELVAAISSGGSTHYADSVKGRFTISRDNAKNTVYLQMNSLKPEDTAVYYCAAQWTESSLYRFGYWGQGTQVTVSS	high polyreactivity
QVQLVESGGGLVQAGGSLRLSCAASGSTFWYNAMGWYTQAPGKERELVAAITWTGDGTYYADSVKGRFTISRDNAKNTVYLQMNSLKPEDTAVYYCAAAYFQWSTSIVGLDAWYDYWGQGTQVTVSS	low polyreactivity
QVQLVESCGLLVQAGGSLRLSCAASGSIIVYNTMRCYRQAPGKERELVAAIYSSGGSTYYADSVKGRFTISRDNAKNTVYLQMNILKPEDTAVYYCAAVNGYQYPPYYYNGYDYWGQGTHVTVSS	low polyreactivity
QVKRVESGGGLVQAGGSLRFSCADSGFTFGTYAMGWYRQAPGKEREFVAAISSNGGNTYYADSVKGRFTISRDNAKNTVYLEIHSLKPEDTAVSYCADRYPSGTRKWYCYWGQGTQVTVSS	high polyreactivity
QVQLVESGGGLVQAGGSLRLSCAASGRIFQYNTMGWYRQAPGKERELVARISWSGGSTRYADSVKGRFTISRDNAKNTVDLQMNSLKPEETEVYYCAVQEAYRYAHAYYYWGQGTQVTVSS	high polyreactivity
QVQLVESGGGLVQAGGSLRLSCAAYGSIFHVYAMGWYRQAPGKERELVAAIDRSGGSTYYADSVKGRFTISRDNAKNTVYLQMNSLKPEDTSVYYCAKDVLGGQITDGVGNDYWGQGTQVTLSS	low polyreactivity
QVQLVESGGGLFQAGGSLRLSCAASGFTFPAYNMGWYRQAPRKEMEMVAAITSSGGNTYYADSVKGRFTISRHNAKNTVYLQMNSLKPEDTAVYYWATFSVRWPSNDHVRYDYWGHGTQVTVSS	low polyreactivity
QVQLVESGGGLVQAGGSLRLSCAASGPIFLRYAIGWYRQAPGKERVLVAVISRSGSSTYYADSVKGRFTISRDNAKNTVYLQMNSLKPEDTAFYHCAAGYSWGYSSQKLRYGYLGQGTQVTVSS	high polyreactivity
QVQLVESGGGLVQAGGSLRLSCAASGLTFDKYTMGWYRQAPGKERELVARISTSGSRTYYADSVKGRFTISRDNAKNTVYLQMNSLKPEDTAVYYCNKDGWIRRRRGYDYWGQGTQVTVSS	high polyreactivity
QVQLVESGGGLVQAGGSLRLSCADSGRIICWYAMGWYRQAPGKERELVAAISTGSRTYYADSVKGRFTISRDNAKTTVYLQMNSLKPEDTAVYYCAASLYSGYVSWGQGTQVTVSS	low polyreactivity
QVQLVESGLGLVQAGGSLSLSCAASGIIFSWNSMGWYIEAPGKERELVAAITRGGGGTTYYADYVKGRFTISRDKAKNTVYLQMNSLKPEDTAVYYCAKAYEVRFEVDYCGQGTQVTVSS	low polyreactivity
QVQLVESGGGLVQAGGSLRLSCAASGSIFFWNAMGWYRQAPGKERELVAAISWSAGITYYADSVKGRFTISRDNAKNTVYVQMNSLKPEDTAVYYCARDQGWYTVYYDSYDYWGQGTLVTVSS	low polyreactivity
QVQLVESGGGLVQAGGSLRLISAASGSIFDEYAMGWYRQAPGKERELVAAISSSGTSTYYADSVKGRFTISRDNAKNTVYLQMNSLKPEYTAVYYCAARSAFLKSGYLMDYWGHGTQVTVSS	low polyreactivity
QVQLVESGGGLFQAGGSLRLSCAASGFIVRRYAMGWYRQAPGKEREMVAAITSGGGRTYYADSVKGRYTISRDNAKYTVNLEMISLKPEDTGVYDCARVQRCDYDYWGQGTQVTVSS	high polyreactivity
QVQLVESGGGLVQAGGSLRLSCAASGHFFFYYPLGWYRQAPGKERELVARFTLSGTSTYYADSVKGRFTISRDNAKNSVYLQMNSLKPEDTAVYYCAAPYFTYGQDDDDYWRQGTQVTVSS	low polyreactivity
QVQLVESGGGLVQAGGSLRLSCAASGNTFDIYAMGWYRQAPGKERELVAAISRRGGSTYYADSVKGRFTISRDNAKNTVYLQMNSLKPEDTAVYYCNAKHKITHSSSDYWGQGTQVTVSS	high polyreactivity
QVQLVESGGGLVQAGGSLRLSCAASGLILSSNAMGWYRQAPGKERELVAAITWDGDRTYADSVKGRFTISRDNAKNTVYLQMNSLKPEDTAVYYCAADKQYYWYDWSYVYWGQGTQVTVSS	low polyreactivity
QVQLVESGGGLVQAGGSLRLSCAASGRIFPFYVMGWYRQAPGKERELVASIRGGGSTNYADSVKGRFTISRDNAKNTVYLQMNSLKPEDTAVYYCNAARRYRAPLYDYWGQGTQVTVSS	high polyreactivity

Sequence	polyreactivity (PSR sort gate)
QVQLVQSGGGLVQAGGSLRLSCAASGRIFRPNAMGWYRQAPGKERELVAAISSGGSTYYADSVKGRFTISRDNAKNTVYFQMYSLKPEDTAVDYCAADRSNRPYYRQGYDYWGQGTQVTVSS	high polyreactivity
QVQLVESGGGLVQAGGSLRLSCAASGFTFLLYAMGWYRQAPGKERELVAAITWSTGNTYYADSVKGRFTISRDNAKNTVYLQMNSLKPEDTAVYYCYAEYLVITWYGGVEFDYWGQGTQVTVSS	low polyreactivity
QVQLVESGGGLVQAGGSLRLSCAASGITFVTYAMGWYRQAPGKEREFVASINWITGNTYYADSVKGRFTISRDNAKNTVYLQMNSLKPEDTAVYYCATVDWSLYLGTPPSYYWGQGTQVTVSS	low polyreactivity
QVQLVESGGGLVQAGGSLRLSCAASGSTFEYYAMGWYRQAPGKERELVAAITGSGDNTYYADSVKGRFTISRDNAKNTVYLQMNSLKPEDTAVYYCAATMRVKGQYGRMYYWGQGTQVTVSS	high polyreactivity
QVQHVESGGGVVQAGRSLRLRCDASGFILWYYTMGWYRPAPGKERELVAAISRGGTTYYADSVKGRFTISRDNAKKSVYLQMTSLKPEDTAVYYCNAPDNTHGIVLYDYWGQGTQVTVSS	low polyreactivity
QVQLVESGGGLVQAGGSLRLSCAASGFIISHYAMGWYRQAPGKERELVAAISSSGGSTYYADSVKGRFTISRDNAKNTVYLQMNSLKPEDTAVYYCAAAAGAYDYDYWGQGTQVNVSS	high polyreactivity
QDQLVESGGGLVQAGGSLSLSCAASGSTFPYYAMGWSRPAPGKERELVAAISGSGGTTYYADSVKGRFTISRDNAKNTVYLQMNSLKPEDTAVYYCAVDIGVGYGYYYWGQGTQVTVSS	low polyreactivity
QVQLVESGGGLVQAGGSLRLSCAASGRIFVINAMGWYRQAPGKERELVAAIRSGGSTNYADSVKGRFTISRDNAKNTVYLQMNSLKPEDTAVNYCAARNSGRRSKAYDFKMNYWGQGTQVTVSS	high polyreactivity
QVQLGESGGGLVQAGGSLRLSCAASGFTFYRYTLGWYRQAPGKERELVASITRRGGSTYYADSVKGRFTISRDNAKNYVYLQMNSLKPEDTAVYDCNAATPVWQSGTYEYWGQGTQVTVSS	high polyreactivity
QVQLVESGGGLVQAGGSLRLSCAASGFTLTLYAMGWYRQAPGKERELVARITSSGGITYYADSVKGRFTISRDNAKNTVYLQMISLKPEDTAVYYCAKEALIGPSRIILGEMGYWGQGTQVTVSS	low polyreactivity
QVQLVESGGGLVQAGGSLRLSCAASGSTFVRNVMGWYRQAPGKEREFVAAITRSGGSTYYADSVKGRFTISRDNAKNTVYLQMNSLKPEDTAVYYCIVPPGYRLSQYEYDYWGQGTQVTVSS	low polyreactivity
QVLLVESGGGLVQAGGSLRLSCAASGSIFIANAKGWYRQAPGKERELGAAIDSGGSTNYADSVKGRFTISRDNAKYTVYLQMNSLKPEDTAVYYCAADGTLTAPGGDYWGQGTQVTVSS	high polyreactivity
QGQLEESGGGLVQAGGSLRLSCAASGNTFRSYAMGSYRQAPGKERELVAAISGRGGSTYYADSVKGRFTISRDNAKYTVFVQLNSLKPDDTAVYYCAAESRRVNYANDDWGQGTQVTVSS	high polyreactivity
QVQLVESGGGLVQAGGSLRLSCAASGRIFGRYVMGWYRQAPGKERELVARIRRNGGSTYYADSVKGRFTISRDNAKNTVYLQMNSLKPDDTAVYDCAAESYDTWRRYESWGQGTQVTVSS	high polyreactivity
QVQLVESGGGLVQAGGSLRLSCAASGFTFARNAMGWYRQAPGKERELVASITSGGSTNYADSVKGRFTISRDNAKNTVYLQMNSVKPEDSAVYYCNALWWAPGRPGEEIYRILDYWGQGTQVTVSS	low polyreactivity
QVQLVESGGGLVQAGGSLRLSCAASGSIFYQNVMGGYRQAPGKERELVAAISSSGDSTYYADSVKGRFTISRDNAKNTVYLQMNSLKPEDTAVYYCAAEPEYVSGPYDYWGQGTQVTVSS	low polyreactivity
QVQLVESGGGLVQAGGSLRLSCAASGRIFGSYTMGWYRQAPGKERELVAGISRRGGSTYYADSVKGRFTISRDNAKNTVYLQMNGLKPEDTAVYYCAAVSSVFSVRYDYWGQGTQVTVSS	high polyreactivity
QVQLVESGGGLVQAGGSLRLSCAASGRIFRWYAMGWYRQAPGKERELVAAISYSGGSTYYADSVKGRFTISRDNAKNTVYLQMNSLKPEDTAVYYCAAATYYKFDYWGQGTQVTVSW	high polyreactivity
QVQLVESGGGLVLAGGSLRLSCAASGSTFVQNAMGWYRQAHGKERELVAAITFGGGSTYYADSVKGRFTISRDNAKNTVYLQMNSLKPEDTAVYYCAVEVGNPQLAYSYDYWGQGTQVTVSS	low polyreactivity
QVQLVESGGGLVQAGGSLRLSCAASGRTFKYNAMGWYRQAPGKERELVATITRSGGSTYADSVKGRFTISRDNAKNTVYLQMNSLKPEDTAVYYCNLFHVTKDYKTYPQSRYDYWGQGTQVTVSS	high polyreactivity
KVQLVESGGGLVQAGGSLRLSCAASGSTFPPNAMGWNRQAPGKERELVAVISYSDGSTYYADSVKGRFTISRDNAKNTVYLQMNSLKPEDTAVYYCAAYSGYGGVSMYYWGQGTQVTVSS	low polyreactivity
